According to patent US20220016127A1, “COMPOSITIONS AND METHODS FOR INDUCING APPENDAGE AND LIMB REGENERATION” (priority 2020, published 2022):

System: Aurelia ephyra
Test: Arm regeneration induction in amputated Aurelia ephyrae
Format: in vivo, Aurelia aurita
Conditions: amputated ephyrae, factor added to artificial seawater upon amputation
Protocol: Amputation. Strobilated ephyrae were fed daily with rotifers (Brachionus plicatilis) until amputation time. 2-3 days old ephyrae were anesthetized in 400 μM menthol and amputated using a razor blade mounted on an x-acto knife handle. After amputation, ephyrae were let to recover in bubbler cones (FIG. 7). Regeneration was assessed at various times until 1-2 weeks after amputation, before onset of maturation to medusa.
Inducing regeneration. Experimental setup. 0.5-1 L sand settling cones were repurposed as jellyfish aquaria (Nalgene Imhoff; FIG. 7). Each cone was equipped with an airline from a Tetra Whisper air pump 100 to create a gentle vertical current (˜1 bubble/sec, see FIG. 30). The conical geometry eliminates stagnant spots, where the ephyrae could get stuck. In this “bubbler cone” setup, the ephyrae were continually in water current either in the upward air bubble-generated current or the downward self-generated current. 500 mL artificial seawater and 30 ephyrae were placed in each cone to avoid crowding and fouling. Artificial seawater was changed every week. Nutrients. […]
Amputation. […] Regeneration was assessed at various times for 1-2 weeks after amputation, before onset of maturation to medusa. […]

B1: Egf: protein tested in the screen (hEGF recombinant, Sigma E9644) (protein, UniProt P01133 23-1207, looked up)
Pro-epidermal growth factor: PQHWSCPEGTLAGNGNSTCVGPAPFLIFSHGNSIFRIDTEGTNYEQLVVDAGVSVIMDFHYNEKRIYWVDLERQLLQRVFLNGSRQERVCNIEKNVSGMAINWINEEVIWSNQQEGIITVTDMKGNNSHILLSALKYPANVAVDPVERFIFWSSEVAGSLYRADLDGVGVKALLETSEKITAVSLDVLDKRLFWIQYNREGSNSLICSCDYDGGSVHISKHPTQHNLFAMSLFGDRIFYSTWKMKTIWIANKHTGKDMVRINLHSSFVPLGELKVVHPLAQPKAEDDTWEPEQKLCKLRKGNCSSTVCGQDLQSHLCMCAEGYALSRDRKYCEDVNECAFWNHGCTLGCKNTPGSYYCTCPVGFVLLPDGKRCHQLVSCPRNVSECSHDCVLTSEGPLCFCPEGSVLERDGKTCSGCSSPDNGGCSQLCVPLSPVSWECDCFPGYDLQLDEKSCAASGPQPFLLFANSQDIRHMHFDGTDYGTLLSQQMGMVYALDHDPVENKIYFAHTALKWIERANMDGSQRERLIEEGVDVPEGLAVDWIGRRFYWTDRGKSLIGRSDLNGKRSKIITKENISQPRGIAVHPMAKRLFWTDTGINPRIESSSLQGLGRLVIASSDLIWPSGITIDFLTDKLYWCDAKQSVIEMANLDGSKRRRLTQNDVGHPFAVAVFEDYVWFSDWAMPSVMRVNKRTGKDRVRLQGSMLKPSSLVVVHPLAKPGADPCLYQNGGCEHICKKRLGTAWCSCREGFMKASDGKTCLALDGHQLLAGGEVDLKNQVTPLDILSKTRVSEDNITESQHMLVAEIMVSDQDDCAPVGCSMYARCISEGEDATCQCLKGFAGDGKLCSDIDECEMGVPVCPPASSKCINTEGGYVCRCSEGYQGDGIHCLDIDECQLGEHSCGENASCTNTEGGYTCMCAGRLSEPGLICPDSTPPPHLREDDHHYSVRNSDSECPLSHDGYCLHDGVCMYIEALDKYACNCVVGYIGERCQYRDLKWWELRHAGHGQQQKVIVVAVCVVVLVMLLLLSLWGAHYYRTQKLLSKNPKNPYEESSRDVRSRRPADTEDGMSSCPQPWFVVIKEHQDLKNGGQPVAGEDGQAADGSMQPTSWRQEPQLCGMGTEQGCWIPVSSDKGSCPQVMERSFHMPSYGTQTLEGGVEKPHSLLSANPLWQQRALDPPHQMELTQ
modifications: Pro-epidermal growth factor
- effect on arm regeneration / regeneration frequency (in words): no effect
